The record followed here is the RNAGym collection of RNA variant scans (doi:10.1093/nar/gkz1192).

First the molecules themselves.
B1: CPEB3 Ribozyme (parent)
chain: UAACAGGGGGCCACAGCAGAAGCGUUCACGUCGCAGCCCCUGUCAGAUUCUGGUGAAUCUGCGAAUUCUGCUGUAUAUCUC

The variants in the data set derive from B1. Put plainly: self-cleavage, relative activity (ratio to wild type); higher = more cleavage; in vitro, sequencing. Summed up: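 Relative activity compares each variant's cleaved/total read fraction with that of the unmutated ribozyme. To get these fractions, barcoded CPEB3 ribozyme libraries from rounds of error-prone PCR were transcribed with T7 RNA polymerase for 5 hours at 37°C and then given 15 min of DNase I treatment before EDTA was added. The RNAs were reverse transcribed with template switching and sequenced on Illumina, and DNA sequencing linked barcodes to variants. A minimum of 5 reads applied, and three batches were averaged.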
For the variant C14U U78C, the self-cleavage is 1.22.
Turning to A15G C50G, the self-cleavage was 0.57.
As to A15G C50U, the self-cleavage is 0.33.
On to A15G C50A, for which the self-cleavage amounted to 0.4.
For the variant A15C C37U, the self-cleavage stood at 0.58.
On to A15G C79A, for which the self-cleavage came to 1.19.
In the case of A15G C79G, the self-cleavage was 1.26.
With A15G C79U, the self-cleavage was found to be 1.04.
As to A15G A56G, the self-cleavage amounted to 0.62.
With A15G A56U, the self-cleavage stood at 0.39.
On to A15G A56C, for which the self-cleavage turned out to be 0.35.
As to A15G A77G, the self-cleavage is 1.15.
In the case of A15G A77C, the self-cleavage was determined as 1.1.
With A15G A77U, the self-cleavage is 0.97.
For the variant A15C U54C, the self-cleavage worked out at 0.98.
As to A15G G22A, the self-cleavage worked out at 0.22.
Regarding A15G G22U, the self-cleavage came to 0.46.
Consider A15G A65U, for which the self-cleavage is 0.23.
In the case of A15G A65G, the self-cleavage was 0.39.
For the variant A15C U49A, the self-cleavage stood at 0.7.
On to A15C U49C, for which the self-cleavage stood at 0.35.
The figure for A15U C29U is 0.5; for A15U C34G it is 0.27.
Consider A15U C34A, for which the self-cleavage came to 0.37.
A15U C34U: the self-cleavage turned out to be 0.29.
In the case of A15G C34G, the self-cleavage came out at 0.29.
In the case of A15G C34A it was 0.2; in that of A15G C34U, 0.25.
As to A15G C81U, the self-cleavage amounted to 1.02.
Turning to A15G C81G, the self-cleavage was determined as 1.09.
Consider A15G C81A, for which the self-cleavage was found to be 1.16.
As for A15G U48A, the self-cleavage was 0.35.
Turning to A15G U48G, the self-cleavage was determined as 0.72.
In the case of A15G U48C, the self-cleavage amounted to 0.46.
Regarding A15C C17U, the self-cleavage came to 0.35.
For C14U U48A, the self-cleavage is 0.71.
For the variant C14U U48C, the self-cleavage stood at 0.97.
In the case of A15C A65U it was 0.17.
Take A15C A65G: the self-cleavage was determined as 0.46.
For A15U C17A, the self-cleavage amounted to 0.6.
The figure for A15U C17U is 0.21; for A15U C17G it is 0.36; for A15C U41G it is 0.15.
In the case of A15C U41A it was 0.22; in that of A15C U41C, 1.13; in that of A15C U66C, 0.29.
In the case of A15C U66G it was 0.45; in that of C14U U43G, 0.27; in that of C14U U43C, 1.08.
In the case of C14U U43A, the self-cleavage came to 1.18.
For the variant A15G C27U, the self-cleavage is 0.27.
As for A15G C27A, the self-cleavage came to 0.21.
With A15G U31A, the self-cleavage worked out at 0.63.
For the variant A15G U31C, the self-cleavage worked out at 0.36.
In the case of A15G C38U it was 0.81; in that of A15G C38A, 0.42.
Consider A15G A47U, for which the self-cleavage was 0.64.
Turning to A15G A47G, the self-cleavage turned out to be 0.87.
In the case of A15G G30A, the self-cleavage is 0.33.
Take A15G G30U: the self-cleavage is 0.42.
Consider A15G G30C, for which the self-cleavage came out at 0.27.
As for C14U U54C, the self-cleavage came out at 1.25.
Take C14U U54G: the self-cleavage amounted to 1.16.
In the case of C14U U60A it was 0.53; in that of C14U U60G, 0.41.
For A15U A45C, the self-cleavage came out at 0.18.
On to A15U A45G, for which the self-cleavage was determined as 0.49.
In the case of A15U A45U it was 0.33; in that of A15G C44U, 0.32; in that of A15G C44A, 0.28.
In the case of A15G A20C it was 0.18; in that of A15G A20G, 0.47; in that of A15G A20U, 0.24.
For the variant A15G C68A, the self-cleavage turned out to be 0.2.
With A15G C68U, the self-cleavage is 0.67.
In the case of A15U C27U it was 0.19.
In the case of A15C U26C it was 0.36; in that of A15G U49A, 0.61.
In the case of A15G U49G, the self-cleavage worked out at 0.52.
The figure for A15G U49C is 0.28.
As to A15G U74G, the self-cleavage was 1.14.
On to A15G U74A, for which the self-cleavage was found to be 1.14.
For the variant A15G U74C, the self-cleavage amounted to 1.21.
In the case of A15G A64G it was 0.65.
For A15G A64C, the self-cleavage was found to be 0.25.
Consider A15G A64U, for which the self-cleavage worked out at 0.33.
For A15G A18C, the self-cleavage was 0.37.
Take A15G A18G: the self-cleavage was determined as 0.5.
Take A15G A18U: the self-cleavage is 0.26.
In the case of A15C G24A it was 0.18.
The figure for A15C A18U is 0.32.
A15C A18C: the self-cleavage stood at 0.35.
For A15C A18G, the self-cleavage is 0.41.
Take A15G G36A: the self-cleavage is 0.34.
In the case of A15G G36U it was 0.3.
With A15C U48C, the self-cleavage is 0.47.
In the case of C14U U72C it was 1.21.
With C14U U25A, the self-cleavage worked out at 0.44.
Regarding C14U U25C, the self-cleavage was determined as 0.28.
In the case of A15C U25C it was 0.23; in that of A15C U25A, 0.23; in that of A15G U25A, 0.28.
With A15G U25G, the self-cleavage came out at 0.4.
For the variant A15G U25C, the self-cleavage was determined as 0.28.
For the variant A15G A28U, the self-cleavage worked out at 0.39.
Turning to A15G A28C, the self-cleavage turned out to be 0.53.
In the case of A15G A28G, the self-cleavage worked out at 0.49.
As to A15G C17A, the self-cleavage was 0.34.
With A15G C17U, the self-cleavage came to 0.48.
With C14U G22C, the self-cleavage was found to be 0.18.
With C14U G22A, the self-cleavage was 0.41.
In the case of A15G C71U, the self-cleavage is 0.28.
C14U U80C: the self-cleavage was found to be 1.33.
On to A15C C34U, for which the self-cleavage was found to be 0.29.
A15G G70A: the self-cleavage amounted to 0.29.
As for A15G G70U, the self-cleavage is 0.18.
In the case of A15G G70C, the self-cleavage stood at 0.11.
The figure for A15C C68U is 0.59.
A15G U69A: the self-cleavage came out at 0.35.
As for A15G U69C, the self-cleavage was 0.3.
A15G U69G: the self-cleavage came to 0.32.
On to A15G A21U, for which the self-cleavage was 0.33.
As for A15G A21G, the self-cleavage was found to be 0.49.
The figure for A15G A21C is 0.35; for C14U G52C it is 1.23; for C14U C59A it is 0.28.
For the variant A15C A57U, the self-cleavage was found to be 0.54.
As for A15C A57G, the self-cleavage turned out to be 0.43.
A15C A21G: the self-cleavage turned out to be 0.49.
In the case of A15C A21U it was 0.34; in that of A15C A21C, 0.26; in that of A15C U74C, 1.16.
In the case of A15C A64G it was 0.62.
For the variant A15G U66G, the self-cleavage came out at 0.35.
In the case of A15G U66A it was 0.45; in that of A15G U66C, 0.37.
A15U A47G: the self-cleavage amounted to 0.51.
In the case of A15U A47C, the self-cleavage was found to be 0.29.
The figure for A15U A47U is 0.34; for A15G A35C it is 0.45; for A15G A35U it is 0.53.
The figure for A15G A35G is 0.68; for A15U A77G it is 0.87; for A15U A77U it is 0.71.
For A15U A77C, the self-cleavage was found to be 0.41.
Consider A15G U26G, for which the self-cleavage is 0.55.
Take A15G U26A: the self-cleavage turned out to be 0.71.
The figure for A15G U26C is 0.41; for A15G G52C it is 0.88.
Regarding A15G G52A, the self-cleavage is 0.99.
For the variant A15U A64U, the self-cleavage was found to be 0.37.
Turning to A15U A64G, the self-cleavage turned out to be 0.54.
Turning to C14U G36A, the self-cleavage was found to be 0.32.
In the case of A15C U67C, the self-cleavage turned out to be 0.18.
Regarding A15G G19U, the self-cleavage is 0.28.
In the case of A15G G19C it was 0.49.
For A15C C59U, the self-cleavage was 0.85.
In the case of A15G G46U, the self-cleavage was 0.18.
For the variant A15G G46A, the self-cleavage came to 0.38.
As to A15U C40G, the self-cleavage came to 0.18.
Turning to A15U C40A, the self-cleavage turned out to be 0.31.
With A15G U51C, the self-cleavage came out at 0.74.
Regarding A15G U51A, the self-cleavage turned out to be 0.9.
For A15G U51G, the self-cleavage was determined as 0.62.
With A15G U60A, the self-cleavage was 0.35.
A15G U60C: the self-cleavage was determined as 0.33.
Take A15G U60G: the self-cleavage was 0.34.
